# Source: PMC12401477 (Cell reports, 2025)
# B1: N-terminally extended IRF7 isoform (exIRF7, intron 1 retained) with C-terminal 3xFLAG tag (natural protein, human, UniProt Q92985-4 1-516, looked up)
# chain: MPVPERPAAGPDSPRPGTRRAAPRVLFGEWLLGEISSGCYEGLQWLDEARTCFRVPWKHFARKDLSEADARIFKAWAVARGRWPPSSRGGGPPPEAETAERAGWKTNFRCALRSTRRFVMLRDNSGDPADPHKVYALSRELCWREGPGTDQTEAEAPAAVPPPQGGPPGPFLAHTHAGLQAPGPLPAPAGDKGDLLLQAVQQSCLADHLLTASWGADPVPTKAPGEGQEGLPLTGACAGGPGLPAGELYGWAVETTPSPGPQPAALTTGEAAAPESPHQAEPYLSPSPSACTAVQEPSPGALDVTIMYKGRTVLQKVVGHPSCTFLYGPPDPAVRATDPQQVAFPSPAELPDQKQLRYTEELLRHVAPGLHLELRGPQLWARRMGKCKVYWEVGGPPGSASPSTPACLLPRNCDTPIFDFRVFFQELVEFRARQRRGSPRYTIYLGFGQDLSAGRPKEKSLVLVKLEPWLCRVHLEGTQREGVSSLDSSSLSLCLSSANSLYDDIECFLMELEQPA
# modifications: phosphorylated (sites not given)
# How the values were obtained:
# [1] = target: the molecule itself; test: mass photometry
# [2] = target: the molecule itself; test: mass photometry; remark: listed apart in the source
protein,measurement,setting,value
B1,fold tighter Kd of dimerization than cIRF7,[1],~6 fold
same,stoichiometry N,[2],2
